In one assay the target is T1, 4Ig-domain of Neogenin (Gallus gallus, UniProt Q90610).
T1 construct: made in house
T1 sequence (Q90610 1-383): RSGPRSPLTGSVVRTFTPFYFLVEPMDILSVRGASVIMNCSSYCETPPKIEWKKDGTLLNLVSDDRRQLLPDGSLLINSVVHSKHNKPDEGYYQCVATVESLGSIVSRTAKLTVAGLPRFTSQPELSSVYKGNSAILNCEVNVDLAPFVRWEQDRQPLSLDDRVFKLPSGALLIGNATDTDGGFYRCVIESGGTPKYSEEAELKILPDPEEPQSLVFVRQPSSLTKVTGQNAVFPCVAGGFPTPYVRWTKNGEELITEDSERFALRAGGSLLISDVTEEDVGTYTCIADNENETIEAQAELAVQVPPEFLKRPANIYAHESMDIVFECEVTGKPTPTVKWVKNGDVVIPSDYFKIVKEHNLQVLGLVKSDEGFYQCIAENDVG
Put plainly: ELISA / AP binding assay of RGMa peptides to Neogenin domains. Particulars: AP-tagged fragments 1.0 μg/mL on coated His-tagged 4Ig. From the text:
Specifically, the 4Ig-domain and 6FNIII-domain of Neogenin were each fused to alkaline phosphatase (AP). The 4Ig-domain and 6FNIII-domain of Neogenin were found in the extracellular portion of Neogenin. Accession No. AAC59662 (SEQ ID NO:1) was the amino acid sequence of Neogenin. The 4Ig-domain was amino acids 1 to 383 of Accession No. AAC59662 (SEQ ID NO:1). The 6FNIII-domain was amino acids 429 to 1036 of Accession No. AAC59662 (SEQ ID NO:1).
The binding of these fusions to various RGMa peptides were analyzed in an ELISA assay (FIG. 2A).
To determine if distinct N-terminal regions of RGMa bound the 4Ig- and 6FNIII-domains of Neogenin, peptides were generated that spanned the N-terminal region of RGMa. The amino acid sequence of RGMa was Accession No. NP_989868.1 (SEQ ID NO:6). These peptides were a peptide spanning amino acids 28-73 of RGMa (also referred to herein as “N-Raft”) and a peptide spanning amino acids 77-113 of RGMa (also referred to herein as “N-inh”). […] In a complementary experiment, in which the N-Raft and N-inh peptides of RGMa were fused with AP instead of the 4Ig- and 6FNIII-domains of Neogenin, N-Raft bound to the 4Ig-domain and not the 6FNIII-domain while N-inh bound to the 6FNIII-domain and not the 4Ig-domain (FIG. 9). Additionally, N-inh and N-Raft coated beads pulled down 6FNIII-domain and 4Ig-domain, respectively, which was consistent with the ELISA results described above (FIG. 2B).
The assay was conducted in a 96-well microtiter plate (Corning Incorporated). The wells were coated with 100 μl (10 μg/mL) of Poly-L-Lysine at 4° C. overnight. Wells were then washed three times with 100 μl of PB ST (+0.02% Tween).
50 μl (2.5 μg/mL) of His-tagged: Full-length Neogenin; the 4Ig-domain of Neogenin; and 6FNIII-domain of Neogenin were coated onto each well for 1 hour at 37° C. Following three washes of 100 μl PBST, each well was then blocked with 300 μl of 3% BSA in PBST for 1 hour at 37° C.
50 μl (1.0 μg/mL) AP-tagged: N-RGMa (28-73); N-RGMa (28-54); N-RGMa (40-62); N-RGMa (54-73); N-RGMa (54-62) in 1% BSA+PBST was then added to each well and incubated at 37° C. for 1 hour. Each well was washed thoroughly three times with 100 μl PBST followed by subsequent equilibration of each well with Alkaline Phosphatase (AP) developing buffer (100 mM NaHCO3, 1 mM MgCl2). The reaction was developed using AP developing buffer supplemented with, p-nitrophenyl phosphate (pNPP) (Sigma-Aldrich) and allowed to develop until color development. The reaction was stopped with the addition of 50 μl (0.1M) NaOH. The absorbance of each reaction was measured using a microplate autoreader (BIO-TEK Instruments Inc.) at 405 nanometers (nm) wavelength.
A general note: In an ELISA, binding on a coated surface is turned into a signal by an enzyme label.

The test system of assay [1] is retinal ganglion cells (RGCs). The assay is described as follows: Retinal organotypic cultures (whole mounts), propidium iodide cell death. The format is cell-based. Particulars: perturbing lipid rafts. On the procedure:
(A) HEK293 cells that stably express RGMa (FIG. 11) were transfected with empty plasmid (Ctrl) or Neogenin (Neo). Neogenin induced cell death (arrows) when compared to control. (B) Quantification of cell death in Neogenin-transfected cells that were incubated in BSA (Neo+Ctrl), 4Ig (1 μg/ml), N-Raft (1 μg/ml), Noggin (100 nM), or MβCD (10 mM). […] Data were average±SEM (n=3 independent experiments), *p<0.0001. (C) Representative images and (D) Quantification of cell death in chick E5 tecta electroporated with GFP- and a Neogenin-expression plasmid and then injected with N-RGMa50-99 (Ctrl; 1 μg/ml), 4Ig (1 μg/ml), or N-Raft (1 μg/ml) and subjected to TUNEL assay. […] Data were an average±SEM from 3 different tecta/conditions (*p<0.001). Bar, 100 μm. (E) Representative images and (F) Quantification of retinal whole mounts incubated for 4 days with control peptide (1 μg/ml), 4Ig (1 μg/ml), N-Raft (1 μg/ml), or MβCD (10 mM) and dead cells were stained with Propidium Iodide (PI). Images from 9 whole mounts per condition from 3 independent experiments were taken at the same intensities and the fluorescence measured using ImageJ. […] Bar, 500 μm. (G) Fluorescence micrographs of flat-mounted retinas depicting Fluorogold-labeled retinal ganglion cells (RGCs) in injured retinas at 14 days following axotomy. Control retinas (Ctrl) had few surviving RGCs. 4Ig, N-raft or MβCD increased cell survival. Bar, 200 μm. (H) Representations of the retinal areas selected in our analyses. […] Data were average±SEM (n=6 eyes), *p<0.01.
For this study, retinal organotypic cultures were used, in which axotomy of retinal ganglion cells (RGCs) deprived the cells of tropic factors and induced apoptosis. Cell death was detected using propidium iodide (PI) and all images were taken at the same intensity with the RGC-layer in focus. Cell death was gauged by measuring the relative PI intensity of whole mounts.

Assay [2] deals with temporal retinal explants (axonal outgrowth). The assay is described as follows: Retinal explants outgrowth assay. Type of assay: cell-based, chick. On the procedure:
Poly-L-Lysine (SIGMA; 10 μg/ml) coated glass coverslips were treated with Laminin (Invitrogen; 10 μg/ml) and RGMa proteins (5 μg/ml) and incubated for 3 hours at room temperature. Temporal retinal explants were cultured on protein-coated surfaces for 18 hours. To disrupt the lipid rafts, explants were pretreated with 10 mM methyl-β-cyclodextrin (MβCD) for 12 minutes or 2 U/ml cholesterol oxidase (CO) for 1 hour at 37° C. Explants were then fixed with 4% paraformaldehyde (PFA) and stained with Alexa488-phalloidin. Fiber length was quantified using Image Pro 5.0. For immunolocalization, explants were treated with Cholera Toxin B-FITC (C1655; Sigma; 10 mg/mL) and patched, fixed and stained with Neogenin antibody. Retinal ganglion cells (RGCs) were electroporated with RGMa-His and cultured for 18 hours. The cells were fixed and stained with Neogenin and His-tag antibodies.
Retinal explants outgrowth assay. Poly-L-Lysine (PLL; SIGMA; 10 μg/ml) coated glass coverslips were treated with Laminin (10 μg/ml; Invitrogen) and RGMa proteins (5 μg) and incubated for 3 hrs at room temperature. PLL treated coverslips were coated with myelin overnight (6 μg/cm2), followed by coating with Laminin. Temporal retinal explants were cultured on either myelin or protein-coated surfaces in DMEM F-12 media (2% chick serum, 10% FBS) for 18 h. To disrupt rafts, explants were pre-treated with 10 mM MβCD for 12 min or 2 U/ml CO for 1 h at 37° C., washed, and cultured on protein coated coverslips. Explants were then fixed with 4% PFA and stained with Alexa488-fluor-phalloidin (1:50; Molecular Probes). Fiber length was quantified using Image Pro 5.0.
Statistical analysis of retinal outgrowth assays was performed using Student's two-tail t-test using Excel (Microsoft). Results were expressed as the mean±SEM (n=at least 3 independent experiments; 2 duplicates per independent experiment, >10 explants per duplicate).

The test system of assay [3] is Neogenin association with lipid rafts. Put plainly: Lipid raft fractionation of injected chick brain/tecta. Type of assay: in vivo. Particulars: injected into chick brain/optic tectum one day before fractionation. The procedure: Injected chick E8 tecta (4Ig, 2 mg/mL; N-raft, 1 mg/mL; methyl-β-cyclodextrin (10 mM)) or transfected cells (Neogenin and RGMa) were collected 24 hours later, lysed and placed at the bottom of a sucrose density gradient (0.9-0.8-0.75-0.7-0.6-0.5-0.4-0.2 M) and centrifuged at 38,000 rpm for 16 hours in SW 60 rotor (Beckman Instruments Inc.).
Proteins (4Ig, 2 mg/ml; N-Raft, 1 mg/mL; RGMaΔ, 5 mg/ml; methyl-β-cyclodextrin (10 mM)) were injected in chick E8 optic tectum and tecta were collected 24 hrs later. HEK cells were transfected with Neogenin and different RGMa constructs and collected 48 hrs later. For treatment with RGMaΔ, Neogenin transfected cells were treated with RGMaΔ (2 mg/ml) and BMP-2 (100 nM) and further incubated for 1 hr at 37° C. Tecta (3 tecta for each set of experiment) and/or cells were solubilized in chilled buffer (25 mM Tris-HCl, pH 7.4, 150 mM NaCl, 5 mM EDTA and protease inhibitor cocktail) and passed through G25 and G30 needles, respectively, and centrifuged at 800 g for 10 min at 4° C. Cold Triton X-100 was added to the post nuclear supernatant to a final concentration of 1% and incubated on ice for 1 hour. 2× volume of 2M sucrose was added and sample placed at the bottom of a sucrose density gradient (0.9-0.8-0.75-0.7-0.6-0.5-0.4-0.2 M) and centrifuged at 38,000 rpm for 16 hours in SW 60 rotor (Beckman Instruments Inc.). 400 μl fractions were collected from top (top numbered 1 and next eight fractions numbered consequently) and stored at −80° C.
As such, it was examined if overexpressing recombinant 4Ig and N-Raft competed with the endogenous 4Ig and N-Raft domains to displace Neogenin from the lipid raft fractions to the non-lipid raft fractions. Specifically, N-Raft, 4Ig-domain, or a control peptide, which was amino acid residues 50-99 of RGMa (also referred to herein as “N-RGMa^50-99”), was injected into the optic tectum at E8. The tecta were collected a day later for fractionation-analyses.

No end group written: not given here.

As for “N-RGMa (40-62aa): amino acids 40-62 of RGMa (SEQ ID NO:4), AP-tagged (WAATSGSHHLGAEETPEFCTALR; also: AP-tagged)”, the “binding to the 4Ig-domain of Neogenin” value in the assay with 4Ig-domain of Neogenin was “bound specifically”.
Same read-out and setting: the same measure for “N-RGMa (54-73aa): amino acids 54 to 73 of RGMa (SEQ ID NO:3), AP-tagged (TPEFCTALRAYAHCTRRTAR; cysteine pairing not given here; also: AP-tagged)”: “bound specifically”.
Consider cholesterol oxidase [CO], for which the “enhancement of cell survival vs. control” value in assay [1] is recorded as “about 50%”. Further, the “axonal outgrowth on RGMa proteins after lipid raft disruption” value in assay [2] (10 mM MβCD or 2 U/ml of CO) is listed as “restored to control values”.

B1: Noggin: BMP-chelator, Accession No. AAA83259 (SEQ ID NO:5) (protein, listed as Homo sapiens)
chain: MERCPSLGVTLYALVVVLGLRATPAGGQHYLHIRPAPSDNLPLVDLIEHPDPIFDPKEKDLNETLLRSLLGGHYDPGFMATSPPEDRPGGGGGAAGGAEDLAELDQLLRQRPSGAMPSEIKGLEFSEGLAQGKKQRLSKKLRRKLQMWLWSQTFCPVLYAWNDLGSRFWPRYVKVGSCFSKRSCSVPEGMVCKPSKSVHLTVLRWRCQRRGGQRCGWIPIQYPIISECKCSC
modifications: Noggin - Accession No. AAA83259
Turning to B1, the “Neogenin localization in membrane fractions” value in assay [3] is on record as “not present in the lipid rafts”. Besides, the “outgrowth in retinal explants (E8) exposed to N-RGMa, C-RGMa or RGMaΔ” value in assay [2] (in presence of Noggin) was “restored outgrowth”. Besides, the “axonal outgrowth, agent alone” value in assay [2] (no RGMa protein) is given as “unaffected”.

B2: C-RGMa: C-terminal RGMa isoform of the CNS (protein)
chain: PHLRTFTDTFQTCKVQGAWPLIDNNYLNVQVTNTPVLPGSSATATSKLTIIFKSFQECVEQKVYQAEMDELPAAFADGSKNGGDKHGANSLKITEKVSGQHIEIQAKYIGTTIVVRQVGRYLTFAVRMPEEVVNAVEDRDSQGLYLCLRGCPLNQQIDFQTFRLAQAAEGRARRKGPSLPAPPEAFTYESATAKCREKLPVEDLYFQSCVFDLLTTGDVNFMLAAYYAFEDVKMLHSNKDKLHLYERTRALAPGN
B2: the “effect on axonal outgrowth when provided as growth substrate (in trans)” value in assay [2] (protein as substrate) was “blocked axon growth”.

B3: N-RGMc (SEQ ID NO:9): N-RGMc from mouse (protein)
chain: MGQSPSPRSPHGSPPTLSTLTLLLLLCGQAHSQCKILRCNAEYVSSTLSLRGGGSPDTPRGGGRGGLASGGLCRALRSYALCTRRTARTCRGDLAFHSAVHGIEDLMIQHNCSRQGPTAPPPARGPALPGAGPAPLTPDPCDYEARFSRLHGRAPGFLHCASFGD
modifications: Mouse N-RGMc
notes: N-RGMc from mouse
Turning to B3, the “binding to the 4Ig-domain of Neogenin” value in the assay with 4Ig-domain of Neogenin is “demonstrated binding”.

B4: N-RGMa (SEQ ID NO:10): N-RGMa from mouse (protein)
chain: MQPPRERLVVTGRAGWMGMGRGAGRSALGLWPTLAFLLCSFPAAISPCKILKCNSEFWSATSSGSHAPASDDVPEFCAALRTYALCTRRTARTCRGDLAYHSAVHGIEDLMSQHNCSKDGPTSQPRVRTLPPAGDSQERSDSPEICHYEKSFHKHSAAPNYT
modifications: Mouse N-RGMa
notes: N-RGMa from mouse
Turning to B4, in the assay with 4Ig-domain of Neogenin, the “binding to the 4Ig-domain of Neogenin” value is “demonstrated binding”.

The record behind these values is patent US11497796B2, “Agents directed against a cis RGMa/neogenin interaction or lipid rafts and use of the same in methods of treatment” (UNIVERSITY HEALTH NETWORK, priority 2013, dated 2022).
